Tests used:
HLA-A*24:02 = assay: IEDB peptide-MHC binding, purified MHC/competitive/radioactivity; filed as Kd, often an IC50 or EC50 that approximates it; ≥ and ≤ were set here for values at or beyond the usual limits of such assays
HLA-A*23:01 = assay: as above
HLA-A*29:02 = assay: as above
HLA-A*02:01 [1] = assay: IEDB peptide-MHC binding, purified MHC/competitive/fluorescence; ≥ and ≤ were set here for values at or beyond the usual limits of such assays
HLA-A*30:02 = assay: IEDB peptide-MHC binding, purified MHC/competitive/radioactivity; filed as Kd, often an IC50 or EC50 that approximates it; ≥ and ≤ were set here for values at or beyond the usual limits of such assays
HLA-A*02:01 [2] = assay: IEDB peptide-MHC binding, purified MHC/competitive/fluorescence; filed as Kd, often an IC50 or EC50 that approximates it; ≥ and ≤ were set here for values at or beyond the usual limits of such assays
HLA-A*26:01 = assay: IEDB peptide-MHC binding, purified MHC/competitive/radioactivity; filed as Kd, often an IC50 or EC50 that approximates it; ≥ and ≤ were set here for values at or beyond the usual limits of such assays
HLA-A*01:01 = assay: as above
HLA-A*02:06 = assay: as above
HLA-A*02:03 = assay: as above
HLA-A*02:02 = assay: as above
HLA-A*69:01 = assay: IEDB peptide-MHC binding, purified MHC/direct/fluorescence; filed as Kd, often an IC50 or EC50 that approximates it; ≥ and ≤ were set here for values at or beyond the usual limits of such assays; settings: source organism: Giardia lamblia ATCC 50803
HLA-A*02:01 [3] = assay: as above; settings: source organism: Giardia lamblia ATCC 50803
[4] = source organism: Mammarenavirus brazilense
[5] = source organism: Mammarenavirus guanaritoense
[6] = source organism: Zaire ebolavirus
[7] = source organism: Dengue virus 4 Philippines/H241/1956
[8] = source organism: Dengue virus 2 Jamaica/1409/1983
[9] = source organism: Sudan ebolavirus
[10] = source organism: Dengue virus 4 Dominica/814669/1981
[11] = source organism: Mammarenavirus juninense
[12] = source organism: Vaccinia virus WR
[13] = source organism: Dengue virus 3 Sri Lanka/1266/2000
[14] = source organism: Mammarenavirus choriomeningitidis
[15] = source organism: SARS coronavirus Tor2
[16] = source organism: Mammarenavirus whitewaterense

RLKGVTCRLF gave a Kd (HLA-A*24:02; [4]) of 719 nM, a Kd (HLA-A*23:01; [4]) of 98.3 nM and a Kd (HLA-A*29:02; [4]) of 395 nM.
Sequence SFYSDPKRFF has a Kd (HLA-A*24:02; [5]) of 740 nM, a Kd (HLA-A*23:01; [5]) of 226 nM and a Kd (HLA-A*29:02; [5]) of 124 nM.
TIGEWAFWE was tested, and the IC50 (HLA-A*02:01 [1]; [6]) was ≥ 245000 nM.
With YTYPDSLEE the IC50 (HLA-A*02:01 [1]; [6]) was ≥ 264000 nM.
With EQYQQLREA the IC50 (HLA-A*02:01 [1]; [6]) was ≥ 221000 nM.
Sequence GYATQTVGPW has a Kd (HLA-A*24:02; [7]) of 1290 nM and a Kd (HLA-A*23:01; [7]) of 549 nM.
TSQVPKLLL showed an IC50 (HLA-A*02:01 [1]; source organism: Variola virus) of 47400 nM.
For KLTLKGMSY, the Kd (HLA-A*30:02; source organism: Dengue virus 1 Singapore/S275/1990) was 521 nM.
CWCNSTSTW was tested, and the Kd (HLA-A*24:02; [8]) was 1250 nM and the Kd (HLA-A*23:01; [8]) was 998 nM.
In the case of SVMATEEPT, the IC50 (HLA-A*02:01 [1]; [9]) is reported as ≥ 115000 nM.
Sequence KVDTTHVSKV has a Kd (HLA-A*02:01 [2]; source organism: Myxoma virus) of 42.3 nM.
With NLEGSGVST the IC50 (HLA-A*02:01 [1]; [9]) was 67600 nM.
In the case of MFGGVSWMI, the Kd (HLA-A*24:02; [10]) is reported as 78.3 nM and the Kd (HLA-A*23:01; [10]) is reported as 41.8 nM.
For HHQDTGEES, the IC50 (HLA-A*02:01 [1]; [6]) was ≥ 223000 nM.
Sequence KLTDSLSSQ has an IC50 (HLA-A*02:01 [1]; source organism: Vaccinia virus Copenhagen) of 44600 nM.
DVIPMVTQM was tested, and the Kd (HLA-A*26:01; source organism: Dengue virus 2 Peru/IQT2913/1996) was 64.2 nM.
RWTQSLRRGL was tested, and the Kd (HLA-A*24:02; [11]) was ≥ 70300 nM, the Kd (HLA-A*23:01; [11]) was 5300 nM and the Kd (HLA-A*29:02; [11]) was 1280 nM.
With LIGIEILNT the IC50 (HLA-A*02:01 [1]; [12]) was ≥ 147000 nM.
With WTEAKMLLD the Kd (HLA-A*01:01; source organism: Dengue virus 1 Brazil/97-11/1997) was 943 nM.
Work on CTINVNSLAL yielded a Kd (HLA-A*02:06; [12]) of 216 nM, a Kd (HLA-A*02:03; [12]) of 1040 nM and a Kd (HLA-A*02:02; [12]) of 494 nM.
With SYLAGAGLL the Kd (HLA-A*24:02; [8]) was 19.4 nM.
TYQLWTALV was tested, and the Kd (HLA-A*24:02; [13]) was 48.3 nM and the Kd (HLA-A*23:01; [13]) was 58.3 nM.
KIMEIVSHL was tested, and the Kd (HLA-A*02:06; [12]) was 29.7 nM, the Kd (HLA-A*02:03; [12]) was 10.3 nM and the Kd (HLA-A*02:02; [12]) was 79 nM.
For FMYEDALKS, the Kd (HLA-A*69:01) was 1360 nM and the Kd (HLA-A*02:01 [3]) was 43.5 nM.
With LMDSIFVSTM the Kd (HLA-A*02:06; [12]) was 610 nM, the Kd (HLA-A*02:03; [12]) was 8.15 nM and the Kd (HLA-A*02:02; [12]) was 3.65 nM.
PDLKTIHNIL was tested, and the Kd (HLA-A*26:01; [14]) was ≥ 69700 nM, the Kd (HLA-A*01:01; [14]) was ≥ 70400 nM and the Kd (HLA-A*30:02; [14]) was 10300 nM.
Work on KTVKNVDII yielded a Kd (HLA-A*02:06; [12]) of 698 nM, a Kd (HLA-A*02:03; [12]) of 1790 nM and a Kd (HLA-A*02:02; [12]) of 607 nM.
With EVKQDEDGSF the Kd (HLA-A*26:01; [7]) was 69.2 nM.
With ILFPDDVQEL the Kd (HLA-A*02:01 [2]; [12]) was 1.1 nM.
KINEMVDEL was tested, and the Kd (HLA-A*02:06; [12]) was 317 nM, the Kd (HLA-A*02:03; [12]) was 75.6 nM and the Kd (HLA-A*02:02; [12]) was 1.42 nM.
Work on IVNSVLLFL yielded a Kd (HLA-A*02:06; [15]) of 30.5 nM, a Kd (HLA-A*02:03; [15]) of 179 nM and a Kd (HLA-A*02:02; [15]) of 7.06 nM.
For TVIKTLLEV, the Kd (HLA-A*02:06; [16]) was 16.6 nM, the Kd (HLA-A*02:03; [16]) was 52.6 nM and the Kd (HLA-A*02:02; [16]) was 2010 nM.
